US8409577

Target: T1, CD20 (human) (UniProt P11836)
T1 sequence (looked up): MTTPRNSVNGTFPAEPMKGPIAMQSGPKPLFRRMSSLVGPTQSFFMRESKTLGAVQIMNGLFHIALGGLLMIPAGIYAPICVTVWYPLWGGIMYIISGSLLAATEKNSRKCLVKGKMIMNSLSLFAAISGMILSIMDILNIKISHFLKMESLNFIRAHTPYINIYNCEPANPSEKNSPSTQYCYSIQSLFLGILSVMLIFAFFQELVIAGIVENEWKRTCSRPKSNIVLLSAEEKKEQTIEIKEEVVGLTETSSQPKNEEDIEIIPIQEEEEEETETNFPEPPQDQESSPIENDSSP
Assay: competition, flow cytometry on Ramos B cells; competitor PE-labeled monoclonal anti-CD20 antibody 3 ug/ml

IC50 (read off the curve): 4 nM
Substance: CD20×CD37 bispecific scorpion (015×016) (bispecific antibody)
